Target: complex of FGFR1c and β-Klotho (recombinant proteins) (UniProt P11362)
Test: AlphaScreen competition
Conditions: ligand

Sequence of complex of FGFR1c and β-Klotho (recombinant proteins) (P11362 other isoform, or with tags, fused parts or gaps, chain 1 of 2): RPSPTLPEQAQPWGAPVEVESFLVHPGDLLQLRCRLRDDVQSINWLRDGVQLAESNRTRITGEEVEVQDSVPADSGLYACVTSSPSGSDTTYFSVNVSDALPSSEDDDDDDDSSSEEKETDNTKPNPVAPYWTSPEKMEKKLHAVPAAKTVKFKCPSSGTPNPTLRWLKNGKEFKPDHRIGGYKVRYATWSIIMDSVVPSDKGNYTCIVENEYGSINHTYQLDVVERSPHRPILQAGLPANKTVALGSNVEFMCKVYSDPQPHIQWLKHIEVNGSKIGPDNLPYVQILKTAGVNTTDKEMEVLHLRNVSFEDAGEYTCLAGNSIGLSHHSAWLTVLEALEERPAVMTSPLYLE
Sequence of complex of FGFR1c and β-Klotho (recombinant proteins) (Q86Z14 53-996, chain 2 of 2, further chain): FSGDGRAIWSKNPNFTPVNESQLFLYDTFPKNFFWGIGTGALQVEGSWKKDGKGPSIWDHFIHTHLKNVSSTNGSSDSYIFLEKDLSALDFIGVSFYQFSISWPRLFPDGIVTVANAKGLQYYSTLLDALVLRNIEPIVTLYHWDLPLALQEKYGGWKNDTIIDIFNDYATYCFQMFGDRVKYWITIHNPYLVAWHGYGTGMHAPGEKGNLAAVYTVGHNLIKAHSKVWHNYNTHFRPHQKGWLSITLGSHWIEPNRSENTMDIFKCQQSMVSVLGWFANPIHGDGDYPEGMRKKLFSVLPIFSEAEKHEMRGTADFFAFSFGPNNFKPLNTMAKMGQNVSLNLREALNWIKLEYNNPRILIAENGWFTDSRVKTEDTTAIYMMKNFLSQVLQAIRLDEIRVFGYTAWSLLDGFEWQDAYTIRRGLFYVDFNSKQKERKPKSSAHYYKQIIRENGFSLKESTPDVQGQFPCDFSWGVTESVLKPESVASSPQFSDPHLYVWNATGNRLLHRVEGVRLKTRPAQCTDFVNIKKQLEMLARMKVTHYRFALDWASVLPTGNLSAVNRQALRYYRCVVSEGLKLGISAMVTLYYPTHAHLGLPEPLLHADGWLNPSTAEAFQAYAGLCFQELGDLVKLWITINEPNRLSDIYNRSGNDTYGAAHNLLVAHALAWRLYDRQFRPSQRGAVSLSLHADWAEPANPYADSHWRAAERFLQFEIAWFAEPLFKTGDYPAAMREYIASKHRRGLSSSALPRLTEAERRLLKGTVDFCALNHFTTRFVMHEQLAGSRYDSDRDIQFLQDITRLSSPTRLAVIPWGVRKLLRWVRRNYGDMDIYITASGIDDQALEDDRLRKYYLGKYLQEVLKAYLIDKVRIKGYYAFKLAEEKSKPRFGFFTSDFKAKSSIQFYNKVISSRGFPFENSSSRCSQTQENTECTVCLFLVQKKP

IC50: 2.6 nM
Substance: human FGF21 (from UniProt Q9NSA1 29-209)

— patent publication US20110150901A1
